Experimental findings from paper PMC2940250 are described below.

What all share (assay): other fluorescence titration
Assay [1] deals with 14-C40-1 chimeric virus (HRV14:HIV-1 gp41 ALDKWAS chimera from a previous library) (human rhinovirus 14 | HIV-1 HxB2).
The target in assay [2] is C1 chimeric virus (HRV14:HIV-1 gp41 ELDKWAS chimera) (human rhinovirus 14 | HIV-1 HxB2).
Assay [3] concerns the target B1 chimeric virus (HRV14:HIV-1 gp41 ELDKWAS chimera) (human rhinovirus 14 | HIV-1 HxB2).

For “broadly neutralizing human mAb 2F5 (antibody)”, the figures for the dissociation constant (Kd) in assay [1], in assay [2] and in assay [3] were 0.769 µM, 0.0238 µM and 0.002 µM, respectively.
